# Assay results taken from patent US7078382B1, “Modulation of eNOS activity and therapeutic uses thereof” (Genentech, Inc., priority 1999, dated 2006).
# Changes are numbered by the printed parent chain. Numbers in names are those of the source. Entries after “also recorded” stand apart in the source; their conditions may differ.
# B1: PLGF: recombinant human placental growth factor (protein, UniProt P49763 19-221, looked up)
# Placenta growth factor: LPAVPPQQWALSAGNGSSEVEVVPFQEVWGRSYCRALERLVDVVSEYPSEVEHMFSPSCVSLLRCTGCCGDENLHCVPVETANVTMQLLKIRSGDRPSYVELTFSQHVRCECRHSPGRQSPDMPGDFRADAPSFLPPRRSLPMLFRMEWGCALTGSQSAVWPSSPVPEEIPRMHPGRNGKKQQRKPLREKMKPERCGDAVPRR
# B2: TGF-beta2: recombinant human transforming growth factor (protein, UniProt P61812 303-414, looked up)
# Transforming growth factor …: ALDAAYCFRNVQDNCCLRPLYIDFKRDLGWKWIHEPKGYNANFCAGACPYLWSSDTQHSRVLSLYNTINPEASASPCCVSQDLEPLTILYYIGKTPKIEQLSNMIVKSCKCS
# modifications: Transforming growth factor beta-2
# B3: LK-VRB-24s: VEGF (1-109) variant, D63S/G65M/M18E/Y21L/Q22R/Y25S (protein)
# chain: APMAEGGGQNHHEVVKFEDVLRRSSCHPIETLVDIFQEYPDEIEYIFKPSCVPLMRCGGCCNSEMLECVPTEESNITMQIMRIKPHQGQHIGEMSFLQHNKCECRPKKD
# B4: LK-VRB-1s*: VEGF (1-109) variant, M18E/Y21L/Q22R/Y25S (protein)
# chain: B3 chain with S63D, M65G
# B5: LK-VRB-26s: VEGF (1-109) variant, G65M/L66R/M18E/Y21L/Q22R/Y25S (protein)
# chain: B3 chain with S63D, L66R
# B6: LK-VRB-25s: VEGF (1-109) variant, D63S/L66R/M18E/Y21L/Q22R/Y25S (protein)
# chain: B3 chain with M65G, L66R
# Experiments:
# [1] = test system: eNOS expression; experiment: eNOS expression by Western blot in ACE cells; assay type: cell-based, bovine
# Description: At the end of incubation, total cell lysates were prepared, and eNOS protein levels were determined by Western blot analysis.
# Bovine adrenal cortex capillary endothelial cells (ACE) were prepared and maintained as previously described (Ferrara et.al., 1989 Biochem. Biophys. Res. Commun. 161:851–858). Briefly, cells were plated onto 6-well tissue culture plates (Costar) and grown in low glucose Dulbecco's modified Eagle's medium, supplemented with 2 mM […] (Life Technologies), 10% bovine calf serum (HyClone Lab., Inc.) and 100 μg/ml Penicillin/Streptomycin (Life Technologies). ACE cells were used between passages 4 and 8.
# Medium was changed every 24 hours.
# The methods for cell lysis and Western blot (WB) have been described in Shen et al., 1998 J. Biol. Chem. 273:29979–29985. A monoclonal anti-eNOS antibody was used at 1:2500 to probe eNOS protein. […] The protein bands were scanned by a densitometer and the relative intensities were quantified using IMAGEQUANT® software (Molecular Dynamics).
# Confluent ACE cells were incubated with 500 pM rhVEGF. […] Equal amounts of protein were denatured under reducing conditions and separated in a 10% Novex mini gel and transferred to PVDF membrane. eNOS protein signals were visualized by ECL and quantified using densitometry.
# [2] = biological target: KDR receptor (Homo sapiens, UniProt P35968); experiment: KDR receptor binding ELISA (inhibition of biotinylated native VEGF (8-109) binding); settings: second figure of the cell, ratio to native VEGF (8-109)
# KDR receptor, sequence (P35968 20-327 limits assumed): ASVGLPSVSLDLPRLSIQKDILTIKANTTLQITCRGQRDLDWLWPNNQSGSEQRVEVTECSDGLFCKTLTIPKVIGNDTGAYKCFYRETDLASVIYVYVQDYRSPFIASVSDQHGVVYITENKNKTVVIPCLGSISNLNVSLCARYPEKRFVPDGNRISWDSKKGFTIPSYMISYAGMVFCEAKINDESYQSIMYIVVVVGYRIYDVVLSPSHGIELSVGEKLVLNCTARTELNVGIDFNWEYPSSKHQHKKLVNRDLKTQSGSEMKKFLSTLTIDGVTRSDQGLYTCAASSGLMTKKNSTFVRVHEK
# Description: Receptor binding assays were performed in 96-well immunoplates (Maxisorp, Nunc-Immunoplate, Nalge Nunc International, Rochester, N.Y.). Each well was coated with 100 μl of a solution containing 8 μg/ml of a monoclonal antibody to KDR known as MAKD5 (Genentech, South San Francisco, Calif.) in 50 mM carbonate buffer at pH 9.6 and incubated at 4° C. overnight. The supernatant was discarded, the wells were washed three times in washing buffer (0.05% Tween 20 in PBS), and the plate was blocked (150 μl per well) with block buffer (0.5% BSA, 0.01% thimerosal in PBS) at room temperature for one hour. The supernatant was discarded, and the wells were washed.
# Aliquots of this mixture (100 μl) were added to the precoated microtiter wells and the plate was incubated for 1 hour at room temperature. […] The wells were then incubated with 3, 3′, 5,5′-tetramethyl benzidine (0.2 gram/liter; Kirkegaard & Perry Laboratories, Gaithersburg, Md.) for about 10 minutes at room temperature. Absorbance was read at 450 nm on a Vmax plate reader (Molecular Devices, Menlo Park, Calif.).
# (§1) Titration curves were fit with a four-parameter nonlinear regression curve-fitting program (KaleidaGraph, Synergy Software, Reading, Pa.).
# [3] = test system: Flt-1 receptor; experiment: Flt-1 receptor binding ELISA (inhibition of biotinylated native VEGF binding to Flt-IgG); settings: second figure of the cell, ratio to native VEGF (8-109)
# Flt-1 receptor, sequence (P17948 27-327 limits assumed): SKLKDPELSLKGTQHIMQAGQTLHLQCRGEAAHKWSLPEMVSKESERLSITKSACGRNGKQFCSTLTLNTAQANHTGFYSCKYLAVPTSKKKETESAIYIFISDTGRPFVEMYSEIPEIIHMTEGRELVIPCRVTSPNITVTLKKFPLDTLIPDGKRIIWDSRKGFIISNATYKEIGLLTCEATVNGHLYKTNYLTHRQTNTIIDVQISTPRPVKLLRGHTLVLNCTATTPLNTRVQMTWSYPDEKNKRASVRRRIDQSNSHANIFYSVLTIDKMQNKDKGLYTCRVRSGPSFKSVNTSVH
# Description: Receptor binding assays were performed in 96-well immunoplates (Maxisorp, Nunc-Immunoplate, Nalge Nunc International, Rochester, N.Y.). Each well was coated with 100 μl of a solution containing 2 μg/ml of rabbit F(ab′)2 to human IgG Fc (Jackson ImmunoResearch, West Grove, Pa.) in 50 mM carbonate buffer at pH 9.6 and incubated at 4° C. overnight. The supernatant was then discarded, the wells were washed three times in washing buffer (0.05% Tween 20 in PBS), and the plate was blocked (150 μl per well) with block buffer (0.5% BSA, 0.01% thimerosal in PBS) at room temperature for one hour. The supernatant was discarded, and the wells were washed.
# The wells were filled with 100 μl of a solution containing Flt-IgG (a chimeric Flt-human Fc molecule) at 50 ng/ml in assay buffer (0.5% BSA, 0.05% Tween 20 in PBS). The wells were incubated at room temperature for 1 hour and then washed three times in wash buffer (0.05% Tween 20 in PBS).
# Aliquots of the mixture (100 μl) were added to the precoated microtiter wells and the plate was incubated for 2 hours at room temperature. […] The wells were then incubated with 3, 3′, 5,5′-tetramethyl benzidine (0.2 g/liter, Kirkegaard & Perry Laboratories, Gaithersburg, Md.) for about 10 minutes at room temperature. Absorbance was read at 450 nm on a Vmax plate reader (Molecular Devices, Menlo Park, Calif.).
# as §1
# [4] = biological target: Flt-1 receptor (Homo sapiens, UniProt P17948); experiment: RIA binding assay, FLT-1 receptor; settings: relative to Native VEGF 165
# Flt-1 receptor (Homo sapiens, UniProt P17948), sequence (P17948 27-1338): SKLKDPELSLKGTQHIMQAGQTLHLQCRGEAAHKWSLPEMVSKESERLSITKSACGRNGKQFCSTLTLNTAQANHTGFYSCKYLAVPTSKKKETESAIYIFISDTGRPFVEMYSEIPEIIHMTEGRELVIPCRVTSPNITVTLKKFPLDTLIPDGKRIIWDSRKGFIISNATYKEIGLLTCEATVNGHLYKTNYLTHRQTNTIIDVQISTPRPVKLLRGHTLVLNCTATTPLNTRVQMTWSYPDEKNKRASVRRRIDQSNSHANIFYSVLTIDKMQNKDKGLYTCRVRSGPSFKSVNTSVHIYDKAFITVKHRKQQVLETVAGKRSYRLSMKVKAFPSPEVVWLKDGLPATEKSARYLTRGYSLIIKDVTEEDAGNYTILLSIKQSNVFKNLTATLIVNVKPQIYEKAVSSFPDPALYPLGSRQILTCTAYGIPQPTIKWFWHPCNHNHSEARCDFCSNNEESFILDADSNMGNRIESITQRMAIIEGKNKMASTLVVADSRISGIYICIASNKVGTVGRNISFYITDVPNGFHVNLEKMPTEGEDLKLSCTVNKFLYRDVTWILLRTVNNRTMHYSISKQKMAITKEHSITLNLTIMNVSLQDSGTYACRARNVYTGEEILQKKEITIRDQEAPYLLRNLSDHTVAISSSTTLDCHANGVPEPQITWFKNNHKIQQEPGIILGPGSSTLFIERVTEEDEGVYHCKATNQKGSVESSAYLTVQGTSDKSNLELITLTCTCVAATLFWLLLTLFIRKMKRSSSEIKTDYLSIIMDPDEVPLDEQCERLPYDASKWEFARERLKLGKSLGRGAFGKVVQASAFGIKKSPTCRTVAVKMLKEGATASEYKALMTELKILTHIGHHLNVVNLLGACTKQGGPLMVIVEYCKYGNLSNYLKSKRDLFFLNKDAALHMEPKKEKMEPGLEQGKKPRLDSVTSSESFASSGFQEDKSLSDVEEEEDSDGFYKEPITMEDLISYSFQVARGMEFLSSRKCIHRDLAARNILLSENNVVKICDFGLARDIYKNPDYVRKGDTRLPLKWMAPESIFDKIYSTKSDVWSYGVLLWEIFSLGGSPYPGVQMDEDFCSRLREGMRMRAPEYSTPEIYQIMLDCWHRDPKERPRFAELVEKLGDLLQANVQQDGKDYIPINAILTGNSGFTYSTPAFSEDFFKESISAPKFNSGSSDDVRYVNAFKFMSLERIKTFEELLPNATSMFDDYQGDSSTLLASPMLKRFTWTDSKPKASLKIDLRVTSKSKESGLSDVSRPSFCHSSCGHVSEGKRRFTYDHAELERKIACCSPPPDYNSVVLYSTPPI
# Source text: The results are shown below in Table 6.
Molecule,Relative Binding Affinity KDR Receptor [2],Relative Binding Affinity FLT-1 Receptor [3],other results
B1,–,–,"eNOS expression with VEGF forms and receptor-selective variants ([1]; equal concentrations, two days): had no effect; also recorded: did not"
B2,–,–,"eNOS expression with angiogenic factors ([1]; 500 pM, 2 days): reduced endogenous eNOS expression"
B3,10 nM/10,/>18000,–
B4,1 nM/1,–,"Relative Binding Affinity FLT-1 Receptor [4]: 14,000"
B5,23 nM/23,/>25000,–
B6,4 nM/4,/>12000,–
